From publication PMC6128205

Target: T1, SlyA (Shigella flexneri serotype 2a 2457T) (UniProt P0A8W4)
T1 sequence: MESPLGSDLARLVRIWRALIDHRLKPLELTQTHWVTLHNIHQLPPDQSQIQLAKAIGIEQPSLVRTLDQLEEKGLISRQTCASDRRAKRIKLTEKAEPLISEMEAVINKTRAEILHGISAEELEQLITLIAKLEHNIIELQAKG
Experiment: EMSA
Details: 10 mM Tris-HCl pH 7.5, 100 mM KCl, 1 mM EDTA, 0.1 mM DTT, 5% glycerol, 10 ug/mL BSA, room temperature 30 min

Q: For “CAGTCTGAACGGGGTGTACACGCCGTATATGCAGGATAAACAATAATTAATTTGATCGCCCGAACAGGAATGTTTGGGCGATTTTTATTACGATAATAAAGTCTGTTTTTAATATTATCATGTTAAATGTTTATATTATAAAAAGTCGTTTTTCTGCTTAGGATTTTGTTATTTAAATTAAGCCTGTAATGCCTTGCTTCCATTGCGGATAAATCCTACTTTTTTATTGCCTTCAAATAAATTTAAGGAGTTCGAAATGGACCAGAAGCTGTTAACGGATTTCCGCTCAG (double strand) [PgadA]”, which binding is on record?
A: binds
